Data as given in publication PMC9243104 (Nature Communications, 2022).

Experiments:
WASp (WT*WASp) = WASp (WT*WASp) (Homo sapiens, UniProt P42768 1-502); assay: EMSA; WASp alone; EMSA: 1x Promega E358A gel shift binding buffer (composition not given), 25 ul, 10^5 CPM 32P probe, 10 min 4 C then 20 min room temperature, 6% native PAGE; conditions: protein: recombinant; tags: Flag; label: 32P (T4 PNK); single strand
RPA1 (RPA70) = RPA1 (RPA70) (Homo sapiens, UniProt P27694 1-616); assay: EMSA; + WASp; binding increased, maximum at equimolar 25 nM WASp; EMSA: 1x Promega E358A gel shift binding buffer (composition not given), 25 ul, 10^5 CPM 32P probe, 10 min 4 C then 20 min room temperature, 6% native PAGE; conditions: protein: commercial; label: 32P (T4 PNK); single strand
Chain of RPA1 (RPA70) (P27694 whole entry): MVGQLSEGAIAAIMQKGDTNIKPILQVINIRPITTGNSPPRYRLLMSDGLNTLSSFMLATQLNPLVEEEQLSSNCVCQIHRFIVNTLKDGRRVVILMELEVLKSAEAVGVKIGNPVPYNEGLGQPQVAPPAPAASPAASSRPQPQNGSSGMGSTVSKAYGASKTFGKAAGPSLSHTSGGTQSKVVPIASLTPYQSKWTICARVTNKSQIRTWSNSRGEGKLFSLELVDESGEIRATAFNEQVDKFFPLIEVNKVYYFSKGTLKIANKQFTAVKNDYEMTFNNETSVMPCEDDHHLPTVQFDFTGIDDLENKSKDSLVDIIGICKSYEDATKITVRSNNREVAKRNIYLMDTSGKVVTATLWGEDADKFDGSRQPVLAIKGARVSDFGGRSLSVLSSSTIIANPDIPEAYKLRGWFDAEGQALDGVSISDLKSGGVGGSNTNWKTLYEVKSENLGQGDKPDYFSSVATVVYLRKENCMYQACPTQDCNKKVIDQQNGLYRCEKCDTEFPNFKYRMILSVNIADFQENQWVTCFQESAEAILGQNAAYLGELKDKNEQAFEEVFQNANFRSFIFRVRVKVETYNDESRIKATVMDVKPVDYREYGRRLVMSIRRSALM

RPA1-AB (DBD-A/B) = RPA1-AB (DBD-A/B) (Homo sapiens, UniProt P27694 181-422); assay: EMSA; + WASp; binding increased; EMSA: 1x Promega E358A gel shift binding buffer (composition not given), 25 ul, 10^5 CPM 32P probe, 10 min 4 C then 20 min room temperature, 6% native PAGE; conditions: protein: recombinant; label: 32P (T4 PNK); single strand
Chain of RPA1-AB (DBD-A/B) (P27694 181-422): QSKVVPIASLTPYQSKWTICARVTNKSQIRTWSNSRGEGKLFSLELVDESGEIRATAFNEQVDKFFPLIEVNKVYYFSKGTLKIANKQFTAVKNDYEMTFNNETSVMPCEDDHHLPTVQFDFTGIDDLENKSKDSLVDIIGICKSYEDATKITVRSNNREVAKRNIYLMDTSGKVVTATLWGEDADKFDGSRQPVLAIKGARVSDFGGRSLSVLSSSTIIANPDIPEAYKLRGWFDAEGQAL

RPA1-FAB (DBD-F/A/B) = RPA1-FAB (DBD-F/A/B) (Homo sapiens, UniProt P27694 1-422); assay: as above; conditions: protein: recombinant; label: 32P (T4 PNK); single strand
Chain of RPA1-FAB (DBD-F/A/B) (P27694 1-422): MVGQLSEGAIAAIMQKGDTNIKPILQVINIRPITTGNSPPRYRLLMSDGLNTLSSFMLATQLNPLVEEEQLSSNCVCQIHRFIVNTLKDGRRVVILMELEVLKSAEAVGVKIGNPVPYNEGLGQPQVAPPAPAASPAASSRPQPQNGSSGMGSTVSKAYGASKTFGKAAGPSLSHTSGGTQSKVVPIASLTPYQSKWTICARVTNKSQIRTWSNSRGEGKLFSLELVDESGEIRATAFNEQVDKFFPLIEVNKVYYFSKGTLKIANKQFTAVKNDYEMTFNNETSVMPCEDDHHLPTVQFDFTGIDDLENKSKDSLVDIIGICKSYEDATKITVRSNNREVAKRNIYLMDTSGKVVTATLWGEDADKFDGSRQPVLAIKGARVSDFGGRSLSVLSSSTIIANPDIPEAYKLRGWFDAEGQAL

[1] = target: RPA heterotrimer (RPA1-3) (Homo sapiens, UniProt P27694;P15927;P35244 1-616;1-270;1-121); assay: as above; conditions: protein: recombinant; copies: 1;1;1; label: 32P (T4 PNK); single strand
Chain of RPA heterotrimer (RPA1-3) (P27694 whole entry, chain 1 of 3): as the sequence (P27694 whole entry) above
Chain of RPA heterotrimer (RPA1-3) (P15927 whole entry, chain 2 of 3): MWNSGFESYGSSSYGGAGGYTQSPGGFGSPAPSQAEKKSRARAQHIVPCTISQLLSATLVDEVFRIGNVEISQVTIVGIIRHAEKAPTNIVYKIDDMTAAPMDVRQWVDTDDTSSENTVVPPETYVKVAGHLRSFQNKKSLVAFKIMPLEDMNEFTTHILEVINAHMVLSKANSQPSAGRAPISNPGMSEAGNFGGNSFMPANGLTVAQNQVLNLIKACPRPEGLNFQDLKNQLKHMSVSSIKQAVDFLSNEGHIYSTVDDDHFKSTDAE
Chain of RPA heterotrimer (RPA1-3) (P35244 whole entry, chain 3 of 3): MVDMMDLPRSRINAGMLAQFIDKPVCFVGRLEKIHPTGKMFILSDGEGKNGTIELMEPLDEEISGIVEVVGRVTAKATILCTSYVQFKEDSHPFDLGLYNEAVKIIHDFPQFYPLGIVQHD

[2] = target: the molecule itself; assay: ELISA; 1 µg of 1st protein coated on a 96-well plate (1 h, 25 °C), blocked with 5% milk in PBS; 2nd protein added at increasing concentrations in blocking buffer (1 h, 25 °C); detected with anti-WASp antibody, OD450; RPA coated alone or after pre-incubation with 1 nM ssDNA

Row | Binder | binding result (WASp (WT*WASp)) | binding result [2] | also measured
1 | ssRNA 61-mer (ssRNA) RNA: GACGCUGCCGAAUUCUACCAGUGCCUUGCUAGGACAUCUUUGCCCACCUGCAGGUUCACCC | no binding |  | 
2 | XO1 ssDNA 61-mer (ssDNA) DNA: GACGCTGCCGAATTCTACCAGTGCCTTGCTAGGACATCTTTGCCCACCTGCAGGTTCACCC | no binding |  | binding result (RPA1 (RPA70)): binds; binding result (RPA1-AB (DBD-A/B)): binds; binding result (RPA1-FAB (DBD-F/A/B)): binds; binding result [1]: binds
3 | Recombinant human ΔRBM1*WASp (WASp mutant lacking the RPA1-binding motif, aa 493-502) (natural protein, UniProt P42768 1-502, looked up, also called RBM1-deleted WASp mutant; source: E. coli DE3 (pET30a-∆RBM1*WASp), purified using Flag-tag; commercially produced by GenScript) MSGGPMGGRPGGRGAPAVQQNIPSTLLQDHENQRLFEMLGRKCLTLATAVVQLYLALPPGAEHWTKEHCGAVCFVKDNPQKSYFIRLYGLQAGRLLWEQELYSQLVYSTPTPFFHTFAGDDCQAGLNFADEDEAQAFRALVQEKIQKRNQRQSGDRRQLPPPPTPANEERRGGLPPLPLHPGGDQGGPPVGPLSLGLATVDIQNPDITSSRYRGLPAPGPSPADKKRSGKKKISKADIGAPSGFKHVSHVGWDPQNGFDVNNLDPDLRSLFSRAGISEAQLTDAETSKLIYDFIEDQGGLEAVRQEMRRQEPLPPPPPPSRGGNQLPRPPIVGGNKGRSGPLPPVPLGIAPPPPTPRGPPPPGRGGPPPPPPPATGRSGPLPPPPPGAGGPPMPPPPPPPPPPPSSGNGPAPPPLPPALVPAGGLAPGGGRGALLDQIRQGIQLNKTPGAPESSALQPPPQSSEGLVGALMHVMQKRSRAIHSSDEGEDQAG |  | binds | 
4 | Recombinant human WT*WASp (Wiskott-Aldrich syndrome protein) (natural protein, UniProt P42768 1-502, looked up, human WASp, codon-optimized WAS gene cloned into the NdeI-HindIII site of pET30a; also called wild-type WASp; native purified human WASp; source: E. coli DE3 (pET30a-WT*WASp), purified using Flag-tag; commercially produced by GenScript) MSGGPMGGRPGGRGAPAVQQNIPSTLLQDHENQRLFEMLGRKCLTLATAVVQLYLALPPGAEHWTKEHCGAVCFVKDNPQKSYFIRLYGLQAGRLLWEQELYSQLVYSTPTPFFHTFAGDDCQAGLNFADEDEAQAFRALVQEKIQKRNQRQSGDRRQLPPPPTPANEERRGGLPPLPLHPGGDQGGPPVGPLSLGLATVDIQNPDITSSRYRGLPAPGPSPADKKRSGKKKISKADIGAPSGFKHVSHVGWDPQNGFDVNNLDPDLRSLFSRAGISEAQLTDAETSKLIYDFIEDQGGLEAVRQEMRRQEPLPPPPPPSRGGNQLPRPPIVGGNKGRSGPLPPVPLGIAPPPPTPRGPPPPGRGGPPPPPPPATGRSGPLPPPPPGAGGPPMPPPPPPPPPPPSSGNGPAPPPLPPALVPAGGLAPGGGRGALLDQIRQGIQLNKTPGAPESSALQPPPQSSEGLVGALMHVMQKRSRAIHSSDEGEDQAGDEDEDDEWDD |  | binds | 
